Results on 7 sequences are retold here after the supplement of paper PMC5998384.

For series [1], the system named is HeLa Kyoto. Briefly: solubility in G1/S (NP-40 vs SDS abundance) (log2 ratio); higher = more soluble. As to conditions: cell cycle stage: G1/S.
Series [2] relates to HeLa Kyoto. Put plainly: melting temperature (median over replicates), in situ; higher = more thermally stable.
Series [3] relates to HeLa Kyoto. Briefly: solubility change mitosis vs G1/S (difference of NP-40 vs SDS log2 ratios) (log2 ratio difference); higher = more soluble in mitosis.
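Wherever melting temperature (median over replicates), in situ is given: HeLa Kyoto cells synchronized by double thymidine or nocodazole block, proteins quantified by TMT10plex mass spectrometry, three independent biological replicates.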
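Wherever solubility change mitosis vs G1/S (difference of NP-40 vs SDS log2 ratios) is given: synchronized HeLa Kyoto cells (double thymidine block for G1/S, nocodazole release for mitosis), protein amounts in NP-40 versus SDS lysates quantified by mass spectrometry, three biological replicates.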
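Wherever solubility in G1/S (NP-40 vs SDS abundance) is given: HeLa Kyoto cells arrested at G1/S by double thymidine block, proteins quantified by TMT10plex mass spectrometry in mild NP-40 versus SDS extracts, three biological replicates.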

Take “MKGSNRNKDHSAEGEGVGKRPKRKCLQWHPLLAKKLLDFSEEEEEEDEEEDIDKVQLLGADGLEQDVGETEDDESPEQRARRPMNAFLLFCKRHRSLVRQEHPRLDNRGATKILADWWAVLDPKEKQKYTDMAKEYKDAFMKANPGYKWCPTTNKPVKSPTPTVNPRKKLWAFPSDSSRDLPSPKKAKTEEMPQLNFGMADPTQMGGLSMLLLAGEHALGTPEVSSGTCRPDVSESPELRQKSPLFQFAEISSSTSHSDASTKQCQTSALFQFAEISSNTSQLGGAEPVKRCGKSALFQLAEMCLASEGMKMEESKLIKAKESDGGRIKELEKGKEEKEIKMEKTDETRLQKEAEFEKSAKENLRDSKELRNFEALQIDDIMAIKMEDPKEIRKEELEEDHKCSHFPDFSYSASSKIIISDVPSRKDHMCHPHGIMIIEDPAALNKPEKLKKKKKKSKMDRHGNDKSTPKKTCKKRQSSESDIESVIYTIEAVAKGDWGIEKLGDTPRKKVRTSSSGKGSILDAKPPKKKVKSREKKMSKEKSSDTTKESRPPDFISISASKNISGETPEGIKAEPLTPMEDALPPSLSGQAKPEDSDCHRKIETCGSRKSERSCKGALYKTLVSEGMLTSLRANVDRGKRSSGKGNSSDHEGCWNEESWTFSQSGTSGSKKFKKTKPKEDCLLGSAKLDEEFEKKFNSLPQYSPVTFDRKCVPVPRKKKKTGNVSSEPTKTSKGPFQSQKKNLFHKIVSKYKHKKEKPNVPEKGSGDKWSNKQLFLDAIHPTEAIFSEDRNTMEPVHKVKNIPSIFNTPEPTTTQEPLVGSQKRKARKTKITHLVRTADGRVSPAGGTLDDKPKEQLQRSLPKATETDCNDKCSHNTEVGETRSSTPEMPAVSAFFSLAALAEVAAMENVHRGQRSTPLTHDGQPKEMPQAPVLISCADQ [BBX]”: the “solubility in G1/S (log2)” value in the series on HeLa Kyoto [1] is -0.353. The melting temperature was determined as 47.4 °C in the series on HeLa Kyoto [2] (cell cycle stage: G1/S) and 50 °C in the series with HeLa Kyoto [2] (cell cycle stage: mitosis). The “solubility change mitosis (log2)” value in the series with HeLa Kyoto [3] turned out to be 0.277.
For “MKTRQNKDSMSMRSGRKKEAPGPREELRSRGRASPGGVSTSSSDGKAEKSRQTAKKARVEEASTPKVNKQGRSEEISESESEETNAPKKTKTEQELPRPQSPSDLDSLDGRSLNDDGSSDPRDIDQDNRSTSPSIYSPGSVENDSDSSSGLSQGPARPYHPPPLFPPSPQPPDSTPRQPEASFEPHPSVTPTGYHAPMEPPTSRMFQAPPGAPPPHPQLYPGGTGGVLSGPPMGPKGGGAASSVGGPNGGKQHPPPTTPISVSSSGASGAPPTKPPTTPVGGGNLPSAPPPANFPHVTPNLPPPPALRPLNNASASPPGLGAQPLPGHLPSPHAMGQGMGGLPPGPEKGPTLAPSPHSLPPASSSAPAPPMRFPYSSSSSSSAAASSSSSSSSSSASPFPASQALPSYPHSFPPPTSLSVSNQPPKYTQPSLPSQAVWSQGPPPPPPYGRLLANSNAHPGPFPPSTGAQSTAHPPVSTHHHHHQQQQQQQQQQQQQQQQQQQHHGNSGPPPPGAFPHPLEGGSSHHAHPYAMSPSLGSLRPYPPGPAHLPPPHSQVSYSQAGPNGPPVSSSSNSSSSTSQGSYPCSHPSPSQGPQGAPYPFPPVPTVTTSSATLSTVIATVASSPAGYKTASPPGPPPYGKRAPSPGAYKTATPPGYKPGSPPSFRTGTPPGYRGTSPPAGPGTFKPGSPTVGPGPLPPAGPSGLPSLPPPPAAPASGPPLSATQIKQEPAEEYETPESPVPPARSPSPPPKVVDVPSHASQSARFNKHLDRGFNSCARSDLYFVPLEGSKLAKKRADLVEKVRREAEQRAREEKEREREREREKEREREKERELERSVKLAQEGRAPVECPSLGPVPHRPPFEPGSAVATVPPYLGPDTPALRTLSEYARPHVMSPGNRNHPFYVPLGAVDPGLLGYNVPALYSSDPAAREREREARERDLRDRLKPGFEVKPSELEPLHGVPGPGLDPFPRHGGLALQPGPPGLHPFPFHPSLGPLERERLALAAGPALRPDMSYAERLAAERQHAERVAALGNDPLARLQMLNVTPHHHQHSHIHSHLHLHQQDAIHAASASVHPLIDPLASGSHLTRIPYPAGTLPNPLLPHPLHENEVLRHQLFAAPYRDLPASLSAPMSAAHQLQAMHAQSAELQRLALEQQQWLHAHHPLHSVPLPAQEDYYSHLKKESDKPL [ATN1]”, the “solubility in G1/S (log2)” value in the series with HeLa Kyoto [1] came out at 0.377. In addition, the melting temperature came to 53.9 °C with HeLa Kyoto [2] (cell cycle stage: G1/S) and 57 °C in the series with HeLa Kyoto [2] (cell cycle stage: mitosis). In addition, in the series with HeLa Kyoto [3], the “solubility change mitosis (log2)” value stood at 0.405.
For “MLAYCVQDATVVDVEKRRNPSKHYVYIINVTWSDSTSQTIYRRYSKFFDLQMQLLDKFPIEGGQKDPKQRIIPFLPGKILFRRSHIRDVAVKRLKPIDEYCRALVRLPPHISQCDEVFRFFEARPEDVNPPKEDYGSSKRKSVWLSSWAESPKKDVTGADATAEPMILEQYVVVSNYKKQENSELSLQAGEVVDVIEKNESGWWFVSTSEEQGWVPATYLEAQNGTRDDSDINTSKTGEVSKRRKAHLRRLDRRWTLGGMVNRQHSREEKYVTVQPYTSQSKDEIGFEKGVTVEVIRKNLEGWWYIRYLGKEGWAPASYLKKAKDDLPTRKKNLAGPVEIIGNIMEISNLLNKKASGDKETPPAEGEGHEAPIAKKEISLPILCNASNGSAVGVPDRTVSRLAQGSPAVARIAPQRAQISSPNLRTRPPPRRESSLGFQLPKPPEPPSVEVEYYTIAEFQSCISDGISFRGGQKAEVIDKNSGGWWYVQIGEKEGWAPASYIDKRKKPNLSRRTSTLTRPKVPPPAPPSKPKEAEEGPTGASESQDSPRKLKYEEPEYDIPAFGFDSEPELSEEPVEDRASGERRPAQPHRPSPASSLQRARFKVGESSEDVALEEETIYENEGFRPYAEDTLSARGSSGDSDSPGSSSLSLTRKNSPKSGSPKSSSLLKLKAEKNAQAEMGKNHSSASFSSSITINTTCCSSSSSSSSSLSKTSGDLKPRSASDAGIRGTPKVRAKKDADANAGLTSCPRAKPSVRPKPFLNRAESQSQEKMDISTLRRQLRPTGQLRGGLKGSKSEDSELPPQTASEAPSEGSRRSSSDLITLPATTPPCPTKKEWEGPATSYMTCSAYQKVQDSEISFPAGVEVQVLEKQESGWWYVRFGELEGWAPSHYLVLDENEQPDPSGKELDTVPAKGRQNEGKSDSLEKIERRVQALNTVNQSKKATPPIPSKPPGGFGKTSGTPAVKMRNGVRQVAVRPQSVFVSPPPKDNNLSCALRRNESLTATDGLRGVRRNSSFSTARSAAAEAKGRLAERAASQGSDSPLLPAQRNSIPVSPVRPKPIEKSQFIHNNLKDVYVSIADYEGDEETAGFQEGVSMEVLERNPNGWWYCQILDGVKPFKGWVPSNYLEKKN [SH3PXD2A]”, in that order: 0.0755, 49.5 °C, 49 °C and 0.1.
As to “MLDHKDLEAEIHPLKNEERKSQENLGNPSKNEDNVKSAPPQSRLSRCRAAAFFLSLFLCLFVVFVVSFVIPCPDRPASQRMWRIDYSAAVIYDFLAVDDINGDRIQDVLFLYKNTNSSNNFSRSCVDEGFSSPCTFAAAVSGANGSTLWERPVAQDVALVECAVPQPRGSEAPSACILVGRPSSFIAVNLFTGETLWNHSSSFSGNASILSPLLQVPDVDGDGAPDLLVLTQEREEVSGHLYSGSTGHQIGLRGSLGVDGESGFLLHVTRTGAHYILFPCASSLCGCSVKGLYEKVTGSGGPFKSDPHWESMLNATTRRMLSHSSGAVRYLMHVPGNAGADVLLVGSEAFVLLDGQELTPRWTPKAAHVLRKPIFGRYKPDTLAVAVENGTGTDRQILFLDLGTGAVLCSLALPSLPGGPLSASLPTADHRSAFFFWGLHELGSTSETETGEARHSLYMFHPTLPRVLLELANVSTHIVAFDAVLFEPSRHAAYILLTGPADSEAPGLVSVIKHKVRDLVPSSRVVRLGEGGPDSDQAIRDRFSRLRYQSEA [ITFG3]”, the “solubility in G1/S (log2)” value with HeLa Kyoto [1] is 0.275. The melting temperature in the series on HeLa Kyoto [2] (cell cycle stage: G1/S) came out at 57.6 °C; in the series on HeLa Kyoto [2] (cell cycle stage: mitosis), 57.1 °C. In the series on HeLa Kyoto [3], the “solubility change mitosis (log2)” value was 0.0404.
Consider “MLRRVTVAAVCATRRKLCEAGRELAALWGIETRGRCEDSAAARPFPILAMPGRNKAKSTCSCPDLQPNGQDLGENSRVARLGADESEEEGRRGSLSNAGDPEIVKSPSDPKQYRYIKLQNGLQALLISDLSNMEGKTGNTTDDEEEEEVEEEEEDDDEDSGAEIEDDDEEGFDDEDEFDDEHDDDLDTEDNELEELEERAEARKKTTEKQSAAALCVGVGSFADPDDLPGLAHFLEHMVFMGSLKYPDENGFDAFLKKHGGSDNASTDCERTVFQFDVQRKYFKEALDRWAQFFIHPLMIRDAIDREVEAVDSEYQLARPSDANRKEMLFGSLARPGHPMGKFFWGNAETLKHEPRKNNIDTHARLREFWMRYYSSHYMTLVVQSKETLDTLEKWVTEIFSQIPNNGLPRPNFGHLTDPFDTPAFNKLYRVVPIRKIHALTITWALPPQQQHYRVKPLHYISWLVGHEGKGSILSFLRKKCWALALFGGNGETGFEQNSTYSVFSISITLTDEGYEHFYEVAYTVFQYLKMLQKLGPEKRIFEEIRKIEDNEFHYQEQTDPVEYVENMCENMQLYPLQDILTGDQLLFEYKPEVIGEALNQLVPQKANLVLLSGANEGKCDLKEKWFGTQYSIEDIENSWAELWNSNFELNPDLHLPAENKYIATDFTLKAFDCPETEYPVKIVNTPQGCLWYKKDNKFKIPKAYIRFHLISPLIQKSAANVVLFDIFVNILTHNLAEPAYEADVAQLEYKLVAGEHGLIIRVKGFNHKLPLLFQLIIDYLAEFNSTPAVFTMITEQLKKTYFNILIKPETLAKDVRLLILEYARWSMIDKYQALMDGLSLESLLSFVKEFKSQLFVEGLVQGNVTSTESMDFLKYVVDKLNFKPLEQEMPVQFQVVELPSGHHLCKVKALNKGDANSEVTVYYQSGTRSLREYTLMELLVMHMEEPCFDFLRTKQTLGYHVYPTCRNTSGILGFSVTVGTQATKYNSEVVDKKIEEFLSSFEEKIENLTEEAFNTQVTALIKLKECEDTHLGEEVDRNWNEVVTQQYLFDRLAHEIEALKSFSKSDLVNWFKAHRGPGSKMLSVHVVGYGKYELEEDGTPSSEDSNSSCEVMQLTYLPTSPLLADCIIPITDIRAFTTTLNLLPYHKIVK [NRD1]”, for which the “solubility in G1/S (log2)” value with HeLa Kyoto [1] came to 0.116. The melting temperature with HeLa Kyoto [2] (cell cycle stage: G1/S) is 50.5 °C; with HeLa Kyoto [2] (cell cycle stage: mitosis) it was 50.9 °C. Also, in the series with HeLa Kyoto [3], the “solubility change mitosis (log2)” value is -0.188.
On to “MMFRDQVGILAGWFKGWNECEQTVALLSLLKRVTRTQARFLQLCLEHSLADCNDIHLLESEANSAAIVSQWQQESKEKVVSLLLSHLPLLQPGNTEAKSEYMRLLQKVLAYSIESNAFIEESRQLLSYALIHPATTLEDRNALALWLSHLEERLASGFRSRPEPSYHSRQGSDEWGGPAELGPGEAGPGWQDKPPRENGHVPFHPSSSVPPAINSIGSNANTGLPCQIHPSPLKRSMSLIPTSPQVPGEWPSPEELGARAAFTTPDHAPLSPQSSVASSGSEQTEEQGSSRNTFQEDGSGMKDVPSWLKSLRLHKYAALFSQMSYEEMMTLTEQHLESQNVTKGARHKIALSIQKLRERQSVLKSLEKDVLEGGNLRNALQELQQIIITPIKAYSVLQATVAAATTTPTAKDGAPGEPPLPGAEPPLAHPGTDKGTEAKDPPAVENYPPPPAPAPTDGSEPAPAPVADGDIPSQFTRVMGKVCTQLLVSRPDEENITSYLQLIEKCLTHEAFTETQKKRLLSWKQQVLKLLRTFPRKAALEMQNYRQQKGWAFGSNSLPIAGSVGMGVARRTQRQFPMPPRALPPGRMGLLSPSGIGGVSPRHALTSPSLGGQGRQNLWFANPGGSNSMPSQSRSSVQRTHSLPVHSSPQAILMFPPDCPVPGPDLEINPTLESLCLSMTEHALGDGTDKTSTI [SAMD4B]”, for which, in the series with HeLa Kyoto [1], the “solubility in G1/S (log2)” value was 0.549. For the same sequence, the melting temperature in the series on HeLa Kyoto [2] (cell cycle stage: G1/S) is 50.8 °C; in the series on HeLa Kyoto [2] (cell cycle stage: mitosis) it was 51.4 °C. The “solubility change mitosis (log2)” value with HeLa Kyoto [3] was -0.0818.
In the case of “MMKFKPNQTRTYDREGFKKRAACLCFRSEQEDEVLLVSSSRYPDQWIVPGGGMEPEEEPGGAAVREVYEEAGVKGKLGRLLGIFENQDRKHRTYVYVLTVTEILEDWEDSVNIGRKREWFKVEDAIKVLQCHKPVHAEYLEKLKLGCSPANGNSTVPSLPDNNALFVTAAQTSGLPSSVR [NUDT4]”, in the series with HeLa Kyoto [1], the “solubility in G1/S (log2)” value came to 0.505. Also, the melting temperature in the series with HeLa Kyoto [2] (cell cycle stage: mitosis) was 49.3 °C. Moreover, the “solubility change mitosis (log2)” value in the series with HeLa Kyoto [3] was -0.0227.
